According to patent publication US20260250318A1, “COMPOSITIONS AND METHODS FOR CROSSING THE BLOOD BRAIN BARRIER” (VOYAGER THERAPEUTICS, INC., priority 2022, published 2026):

T1: His-tagged ALPL (Homo sapiens, UniProt P05186)
T1 sequence (P05186 18-501): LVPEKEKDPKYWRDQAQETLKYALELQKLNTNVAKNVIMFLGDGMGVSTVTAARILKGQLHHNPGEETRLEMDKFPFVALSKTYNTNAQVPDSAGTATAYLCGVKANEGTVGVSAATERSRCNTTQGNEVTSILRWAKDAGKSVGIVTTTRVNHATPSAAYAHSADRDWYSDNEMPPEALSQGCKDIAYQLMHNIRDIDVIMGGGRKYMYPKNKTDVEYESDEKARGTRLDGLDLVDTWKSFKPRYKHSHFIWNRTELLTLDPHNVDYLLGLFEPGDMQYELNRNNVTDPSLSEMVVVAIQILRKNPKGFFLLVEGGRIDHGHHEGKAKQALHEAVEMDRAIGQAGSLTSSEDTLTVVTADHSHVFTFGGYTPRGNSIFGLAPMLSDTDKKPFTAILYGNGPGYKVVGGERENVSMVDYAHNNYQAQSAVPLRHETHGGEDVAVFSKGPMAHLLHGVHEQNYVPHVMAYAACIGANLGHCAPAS

T2: ALPL (Homo sapiens, UniProt P05186)
T2 sequence (P05186 18-501): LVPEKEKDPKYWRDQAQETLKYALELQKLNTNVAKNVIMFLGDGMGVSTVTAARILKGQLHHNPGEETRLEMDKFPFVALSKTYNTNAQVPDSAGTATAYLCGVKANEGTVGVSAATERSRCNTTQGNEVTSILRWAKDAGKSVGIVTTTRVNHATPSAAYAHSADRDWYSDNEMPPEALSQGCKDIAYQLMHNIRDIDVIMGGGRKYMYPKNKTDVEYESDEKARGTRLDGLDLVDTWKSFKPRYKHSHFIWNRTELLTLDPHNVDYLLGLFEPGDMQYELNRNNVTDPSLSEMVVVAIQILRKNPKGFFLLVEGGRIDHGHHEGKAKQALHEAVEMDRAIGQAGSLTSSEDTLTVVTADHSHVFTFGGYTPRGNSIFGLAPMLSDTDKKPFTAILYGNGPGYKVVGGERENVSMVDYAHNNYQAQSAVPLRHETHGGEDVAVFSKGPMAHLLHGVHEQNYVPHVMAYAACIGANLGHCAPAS


Columns and labels:
His-tagged ALPL = molecular target: T1, His-tagged ALPL; assay: SPR (Biacore 8K) binding of capsids to ALPL; conditions: for binding to ALPL by SPR: AAV 0.0625 to 1 nM over ALPL, or ALPL 15.625 to 250 nM over capsid
Method: Direct binding and specific interaction of the TTM-002 capsid variant and the AAV9 capsid control to ALPL was measured by Surface Plasmon Resonance (SPR) on a Biacore 8K instrument. His-tagged ALPL was first captured on a CM5 sensor chip pre-immobilized with anti-His antibody by passing 5 μg/ml of ALPL for 240 seconds (FIGS. 2A-2B). AAV9 or TTM-002 and buffer were then passed over ALPL to monitor rates of association and dissociation, respectively. […] The surface was regenerated using two pulses of 10 mM glycine pH 1.7 for 30 seconds. A flow rate of 30 μl/min was used for all steps and the running buffer used was PBS-P+. In a second experiment, the AAV9 control or TTM-002 capsid variant were immobilized on the CM5 sensor chip (FIGS. 2C-2D). His-tagged ALPL and buffer were then passed over the AAV9 control or TTM-002 capsid variant to monitor rates of association and dissociation. The concentration of ALPL used was from 15.625 to 250 nM (e.g., 15.625 nM, […], 62.5 nM, 125 nM, and 250 nM; FIGS. 2C-2D).
For this experiment, the density of TTM-002 on the chip was approximately 6300RU.
Additional experiments were performed varying the density of the TTM-002 capsid variant on the chip. His-tagged ALPL and buffer were then passed over the AAV9 control or TTM-002 capsid variant to monitor rates of association and dissociation.

[1] = test system: N-linked galactose on HeLa cells; assay: Transduction of HeLa cells after neuraminidase treatment (Luc2 activity); assay type: cell-based, human; conditions: Neuraminidase 1000 mU/mL
ALPL = molecular target: T2, ALPL; assay: SPR (Biacore 8K) binding of peptide ligands to ALPL; conditions: 50 μM peptides or 250 nM capsids flowed over
Method: Binding and interaction between the peptides and the ALPL receptor were measured by Surface Plasmon Resonance (SPR) on a Biacore 8K instrument. The biotinylated peptides in Table 37 were captured on the streptavidin biosensor chip and 1000 nM of ALPL and buffer were passed over the peptides to monitor binding. […] His-tagged ALPL was then captured on the chip pre-immobilized with anti-His antibody, and 50 μM of the peptides in Table 37 or 250 nM of the AAV9 control capsid, the TTM-001 capsid variant (SEQ ID NO: 981), or the TTM-002 capsid variant (SEQ ID NO: 982) were flowed over the ALPL to check for binding. […] The longer peptides derived from TTM-002,
were also flowed over the his-tagged ALPL captured on the CM5 sensor chip pre-immobilized with anti-His antibody.
Binding and interaction between the phosho-peptides and the ALPL receptor were also measured by SPR. The biotinylated and phosphorylated peptides in Table 38 were captured on the streptavidin biosensor chip along with their non-phosphorylated counterparts, […] (SEQ ID NO: 4500) and […] (SEQ ID NO: 4503). ALPL and buffer were passed over the peptides to monitor binding. The concentration of ALPL used ranged from 0 to 500 nM (0 nM, 125 nM, 250 nM, and 500 nM).
In a second experiment, his-tagged ALPL was first captured on a CM5 sensor chip pre-immobilized with anti-His antibody. The phosphorylated peptides in Table 38 and their non-phosphorylated counterparts, […] (SEQ ID NO: 4500) and […] (SEQ ID NO: 4503) and buffer were flowed over the ALPL protein to monitor binding.

brain = assay: Second cross-species screen, synthetic library passage 3 in C57Bl/6 mice; assay type: in vivo; conditions: third passage (P3)
Method: There were approximately 500 variants in this synthetic library. This synthetic library was then injected back into both strains of mice (C57Bl/6 and BALB/c; passage 3). RNA was recovered from the mouse brains, RT-PCR amplification was performed, and fold-enrichment relative to wild-type AAV9 was calculated by NGS analysis, which is provided in Table 11.

[2] = TTM-002 on chip approximately 6300RU

| Molecule | binding to ALPL by SPR (His-tagged ALPL) | fold change in Luc2 activity (RLU) relative to the no neuraminidase control [1] | binding to ALPL by SPR, His-tagged ALPL captured on chip (ALPL) | Fold enrichment over AAV9 in C57Bl/6 (brain) | koff (His-tagged ALPL; Density of TTM-002 127 RU on chip) | koff (His-tagged ALPL; Density of TTM-002 2400 RU on chip) | koff (His-tagged ALPL; Density of TTM-002 6300 RU on chip) | koff (His-tagged ALPL; Density of TTM-002 6680 RU on chip) | koff (His-tagged ALPL; [2]) | kon (His-tagged ALPL; [2]) |
| --- | --- | --- | --- | --- | --- | --- | --- | --- | --- | --- |
| AAV9: wild-type AAV9 control capsid [reference compound] | no binding | 10.4 fold | No detectable binding | – | – | – | – | – | – | – |
| TTM-001: AAV9 capsid variant comprising SPHSKA (SEQ ID NO: 941) in loop IV (protein) chain 1: MAADGYLPDWLEDNLSEGIREWWALKPGAPQPKANQQHQDNARGLVLPGYKYLGPGNGLDKGEPVNAADAAALEHDKAYDQQLKAGDNPYLKYNHADAEFQERLKEDTSFGGNLGRAVFQAKKRLLEPLGLVEEAAKTAPGKKRPVEQSPQEPDSSAGIGKSGAQPAKKRLNFGQTGDTESVPDPQPIGEPPAAPSGVGSLTMASGGGAPVADNNEGADGVGSSSGNWHCDSQWLGDRVITTSTRTWALPTYNNHLYKQISNSTSGGSSNDNAYFGYSTPWGYFDFNRFHCHFSPRDWQRLINNNWGFRPKRLNFKLFNIQVKEVTDNNGVKTIANNLTSTVQVFTDSDYQLPYVLGSAHEGCLPPFPADVFMIPQYGYLTLNDGSQAVGRSSFYCLEYFPSQMLRTGNNFQFSYEFENVPFHSSYAHSQSLDRLMNPLIDQYLYYLSKTINGSGSPHSKAQNQQTLKFSVAGPSNMAVQGRNYIPGPSYRQQRVSTTVTQNNNSEFAWPGASSWALNGRNSLMNPGPAMASHKEGEDRFFPLSGSLIFGKQGTGRDNVDADKVMITNEEEIKTTNPVATESYGQVATNHQSAQAQAQTGWVQNQGILPGMVWQDRDVYLQGPIWAKIPHTDGNFHPSPLMGGFGMKHPPPQILIKNTPVPADPPTAFNKDKLNSFITQYSTGQVSVEIEWELQKENSKRWNPEIQYTSNYYKSNNVEFAVNTEGVYSEPRPIGTRYLTRNL chain 2: GSGSPHSKAQNQQT | – | 9.1 fold | Binding to ALPL was detected | 65.853 fold | – | – | – | – | – | – |
| TTM-002: AAV9 capsid variant comprising HDSPHK (SEQ ID NO: 2) in loop IV (protein) chain 1: MAADGYLPDWLEDNLSEGIREWWALKPGAPQPKANQQHQDNARGLVLPGYKYLGPGNGLDKGEPVNAADAAALEHDKAYDQQLKAGDNPYLKYNHADAEFQERLKEDTSFGGNLGRAVFQAKKRLLEPLGLVEEAAKTAPGKKRPVEQSPQEPDSSAGIGKSGAQPAKKRLNFGQTGDTESVPDPQPIGEPPAAPSGVGSLTMASGGGAPVADNNEGADGVGSSSGNWHCDSQWLGDRVITTSTRTWALPTYNNHLYKQISNSTSGGSSNDNAYFGYSTPWGYFDFNRFHCHFSPRDWQRLINNNWGFRPKRLNFKLFNIQVKEVTDNNGVKTIANNLTSTVQVFTDSDYQLPYVLGSAHEGCLPPFPADVFMIPQYGYLTLNDGSQAVGRSSFYCLEYFPSQMLRTGNNFQFSYEFENVPFHSSYAHSQSLDRLMNPLIDQYLYYLSKTINGHDSPHKSGQNQQTLKFSVAGPSNMAVQGRNYIPGPSYRQQRVSTTVTQNNNSEFAWPGASSWALNGRNSLMNPGPAMASHKEGEDRFFPLSGSLIFGKQGTGRDNVDADKVMITNEEEIKTTNPVATESYGQVATNHQSAQAQAQTGWVQNQGILPGMVWQDRDVYLQGPIWAKIPHTDGNFHPSPLMGGFGMKHPPPQILIKNTPVPADPPTAFNKDKLNSFITQYSTGQVSVEIEWELQKENSKRWNPEIQYTSNYYKSNNVEFAVNTEGVYSEPRPIGTRYLTRNL chain 2: GHDSPHKSGQNQQT | capable of directly and specifically binding to ALPL in a dose dependent manner | 13.7 fold | Binding to ALPL was detected | 51.125 fold | 0.0051 s⁻¹ | 0.00185 s⁻¹ | 0.00127 s⁻¹ | 0.00116 s⁻¹ | 0.00127 s⁻¹ | 32000 M⁻¹ s⁻¹ |
